According to publication PMC3150277, “Crystal Structure of PrgI-SipD: Insight into a Secretion Competent State of the Type Three Secretion System Needle Tip and its Interaction with Host Ligands” (PLoS Pathogens, 2011):

Target: T1, SipD 127-343, as it stands in the PrgI-SipDΔD1 fusion protein (S. enterica serovar typhimurium strain …, UniProt Q56026 127-343)
T1 construct: SipD of S. enterica serovar typhimurium strain SL1344, amino acids 127 to 343; In the crystal it is joined on one chain, C-terminal of PrgI and the linker Gly-Gly-Ser-Gly-Gly; also called SipDΔD1 (in the fusion); source: E. coli BL21(DE3), purified as part of the PrgI-SipDΔD1 fusion protein
T1 sequence: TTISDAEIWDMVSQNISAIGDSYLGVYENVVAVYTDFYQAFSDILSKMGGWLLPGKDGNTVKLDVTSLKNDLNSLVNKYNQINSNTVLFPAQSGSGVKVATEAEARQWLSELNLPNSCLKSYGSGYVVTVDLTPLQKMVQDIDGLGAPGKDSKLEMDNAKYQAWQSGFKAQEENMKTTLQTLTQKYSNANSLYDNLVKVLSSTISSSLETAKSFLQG
Assay: crystal structure; PrgI-SipDΔD1 fusion protein, X-ray, 2.4 Å apo and 2.19 Å soaked with deoxycholate; two copies in the asymmetric unit
Conditions: both partners purified

B1: PrgI, wildtype, as it stands in the PrgI-SipDΔD1 fusion protein (natural protein)
chain: MATPWSGYLDDVSAKFDTGVDNLQTQVTEALDKLAAKPSDPALLAAYQSKLSEYNLYRNAQSNTVKVFKDIDAAIIQNFR
notes: wildtype PrgI of S. enterica serovar typhimurium strain SL1344; In the crystal it is joined on one chain through Gly-Gly-Ser-Gly-Gly to SipD 127-343; also called needle subunit PrgI; source: E. coli BL21(DE3), purified as part of the PrgI-SipDΔD1 fusion protein; not shown: His-tag, N-terminal, cleaved
B1: binds.
